Experiment: soluble on expression in E. coli; label from the status in PepcDB or PDB records
For “MEKIERLRSAFDEAGIDGILLTNEHSRRYMANFTGTAGVVLISKKRAQFITDFRYVEQASKQAVGYEIVQHAGLIIDEVAKQVKELGIQKLGFEQDTLTYSSYSAHKEAIDAEFIPTSGLVEKLRLIKTDSEIKILKEAAQIADAAFEHILSFIRPGVSEIEVSNELEFFMRKQGATSSSFDIIVASGLRSALPHGVASEKVIETGDFVTLDFGAYYKGYCSDITRTIAVGEPSDKLKEIYNIVLEAQLRGVNGIKAGLTGREADALTRDYITEKGYGEYFGHSTGHGIGLEIHEAPGLAFRSDTVLEPGMAVTVEPGIYIPGIGGVRIEDDIIVTSEGNEVITKSPKELIIL”, the “soluble on expression in E. coli” value was “not soluble”. In the case of “MEKKANHGDDVQESVPIIHSQVVKIKREFEKIQHPSLKQPEMPLVFREIMGPRRSRSPLGLGERERSIPVGN”, the “soluble on expression in E. coli” value is reported as “not soluble”. With “MEKKFIAIYDLESDKIEIIDDKFRFKCIEDCGKCCIYNEIPLREEDIQKILSLGYEEEYFVDYTKMFYRGPKFLGYGMKKRPFDDACVFLDPETKKCRIYEHRPVACRIYPFVLVKHEKKLEIYVKEDPRCPGINSPDGEGIVEIIKKYFIPIIEELKGEINGNRRSRQEDFISFNRRLETVVAAALEHHHHHH” the “soluble on expression in E. coli” value was “not soluble”. In the case of “MEKKRVVITGLGAVTPVGTDVETAWENIKKGVSGIGRLTRIDPELFPAKVAAEINDFEVEKYIDKKEARRMDRFTQYAVAAAKMAVADAKLEITEENGPRIGVWIGSGIGGMETYEEQFKIFTEKGPRRVSPFFVPMMIPDMAAGQVSIATGAKGINTCSVTACASGANSIGDAFKAIQRGDADAMITGGAEAPLTSMAFAGFSSAKALTFNEDPATACRPFDKNRSGFVMGEGSGILILEELEHALARGAHIYAEIAGYGATGDAFHITMPAPGGEGGVRAMRQALADAGLQPEDIDYINAHGTSTDANEKYETMAIKETFGEHAYKVAISSTKSMTGHLLGAAGAVEAIFSIKSITDGVIPPTINYETPDPECDLDYVPNNARHQEVNAVLSNSLGFGGHNAVLVFKSYK”, the “soluble on expression in E. coli” value is reported as “not soluble”. With “MEKLNRAADDSMINTLSEKSNEFSFYQAVLLLEKHYQFEPNSNFVAVGENKYFHQERIEFSVSPNLCFPKSDMEFIVHMERNGQQYSRVETNFLGLHGSSSPLPVSYTEKLTGREPDDNPVKDFFDFFHNRYTSLLYRVWKKYRYHVQYQSGATDAFSGRMLHLAGLSGVMQDCGVAELDRAKVLSYVNQLSTRTRSPKLISGIVSHYFSLPSVRIEEWVYRRVEIADSQRNKLNRANCILGQSFHLGQSIADLNGKFNLCIDDIDFETFKQFSYEGELHKTLVGLMRFILRDPMSWDLKLTVNLDSIPNNQLGNGEGNNLGQTFWLGNPTDEDVKIRVIGSI” the “soluble on expression in E. coli” value was “not soluble”. In the case of “MEKNTIILGIETSCDETAVAVVKNGTEIIANVVASQIESHKRFGGVVPEIASRHHVEEITVVLEEALKEANITFDDIDAIAVTEGPGLVGALLIGVNAAKAVAFAHDIPLVGVHHIAGHIYANRLVKEVQFPLLSLVVSGGHTELVYMKEHGSFEVIGETRDDAAGEAYDKVARTLSMPYPGGPHIDRLAHEGKPTIDLPRAWLEPDSYDFSFSGLKSAVINTVHNAKQRGIEIAPEDLAASFQESVIDVLVTKASRAADAYNVKQVLLAGGVAANKGLRARLETEFAQKENVELIIPPLSLCTDNAAMIAAAGTIAYEQGKRATLALNANPGLDIEA”, the “soluble on expression in E. coli” value is reported as “not soluble”. With “MEKRIVCLAGDGVGPEVMESAKEVLHMVERLYGHHFHLQDEHFGGVAIDLTGQPLPQRTLAACLASDAVLLGAVGGPRWDGAKERPEKGLLALRKGLGVFANVRPVTVESATAHLSPLKKADEIDFVVVRELTGGIYFSYPKERTDEVATDTLTYHRHEIERIVSCAFQLASKRKKKVTSIDKANVLESSKLWRIVTEEVALRYPDVELEHILVDAAAMELIRNPGRFDVIVTENLFGDILSDEASVLAGSLGMLPSASHAEKGPSLYEPIHGSAPDIAGKNKANPIAMMRSVAMMLGQSFGLTREGCAIEEAISAVLKSGKCTADIGGTETTTSFTKAVMQEMEEQALVGRGR” the “soluble on expression in E. coli” value was “not soluble”. In the case of “MEKSLVDTVYALKDEVQELRQDNKKMKKSLEEEQRARKDLEKLVRKVLKNMNDPAWDETNL”, the “soluble on expression in E. coli” value is reported as “soluble”. For “MEKYMSLLTRIEEMMQSTSYQEGDRLPSIRQLSARYQVSKSTVIRALQELEKRHLIYSVPKSGYYIVKKSGKSKSGQPGPIDFATSAPDPDVFPYLDFQHCINKAIDTYKNDLFIYGTPKGLPSLIRVLRKLLATQQVFADERHIFITSGVQQALSLLCAMPFPNGKEKIAIEQPGYHLMVEQLETLGIPAIGVKRTEEGLDIAKVERLFQTESIKFFYTMPRFHNPLGCSLSERDKQELVRLAEAYDVYLVEDDYLGDLEENKKADPLYAYDLSSHVIYLKSFSKMMFPGLRVGAAVLPEALTDTFYAYKKLNDIDCSMISQAALEIYLKSGMYGRHKEKIRDSYKERSLRLHQAIRTHRQLGSGRFTFSSGQAPCMHTHLVLPQDLPASRVIHRLEKQGVLLEAIDRHYLSDYPKENLLKINISNVKTEDIERGVKLLMSHL”, the “soluble on expression in E. coli” value was “not soluble”. For “MELAKKTGATVIGSAEMADYLSSYHGVENVHGMNIGGKANFDFGSVKFVQAFHSSSFTHENGIPVYLGMPMGIVFEVEGKTIYHTGDTGLFSDMSLIAKRHPVDVCFVPIGDNFTMGIDDASYAINEFIKPKISVPIHYDTFPLIEQDPQQFKDAVNVGDVQILKPGESVQFLEHHHHHH”, the “soluble on expression in E. coli” value was “not soluble”. With “MELELDDDVFFADISKQLNLLITDEDEQNPISLSSSVSFQGLFRGNYQTSATPYMMYNEQINYNVIRESKGTGVFIPRSSQPRRKHNHHPHQKKQGRFIGSFIPKQQFPHHGHDNNLTTLNNNNQESITFHHASTNPRRTYRDAASLFT” the “soluble on expression in E. coli” value was “not soluble”. With “MELESKMGAFCGAAQSNYDDACVAFSAANKCAPIERETGVKKLADKLNPEQPHKLSVMDVKLITKASGDYTIVNSLLYSLDMVAVAVDKNGESETFVKRTLDNSIYAGELAQEALKHAGQKRMTGRSKNTIVKKAHTAIGNLVLLINDMEGRTPNASSFLSMGMDLLSSGVTVPGLA” the “soluble on expression in E. coli” value was “not soluble”. With “MELFLTGVVLKPKGLKGELKVKPVTDFPESFLTRREYYIGKTPEDAVLRKVQSARFHQGFAWLVFEGAGSREGAEALVGCGLYVTRDALVAMPDDRAYIHELIGLDVFDETEGRVGKISDVLQMPAHDVYEVDTGDRKVLIPAVEDFITETDLEKGMVRLKRFKEFLLEHHHHHH” the “soluble on expression in E. coli” value was “soluble”. In the case of “MELIRWAIELGESVHGNTYEELMPLLDYYYDRDHLKAYCIANLLLNMDVLDEDRERIELRRCIAAYYAGLYKVARKHANELVLKHPDVDLYKNNLRLMEVYLNKEYDYCLFICPKTYGSFIDIARALKWRLEQEGNTVIISETILENVKNTVVFGAHTYAYNPNLLPKDAIVYNLEQLYEGSPYAHPLYLILLKDRVIWDYSKQNIEWLKQKGVGKEIKHVEMNYAPTLEIKKDAFEDEIIEDIDILFIGALNPRRQAIFDHLKAIAPNLNIVFKNNAWGIVRNELIARAKIILNIHFYLSGILETPRVSYAVANKKFIISENSNPEDEVEWPGIVFTPYEKIIENVMKYIELPEERKRLAEKAYNHFEANESLGTLSMRDETK”, the “soluble on expression in E. coli” value is reported as “not soluble”. With “MELKNKKWTDEEFHKQREEVLQQWPTGKEVDLQEAVDYLKKIPAEKNFAEKLVLAKKKGITMAQPRAGVALLDEHIELLRYLQDEGGADFLPSTIDAYTRQNRYDECENGIKESEKAGRSLLNGFPGVNFGVKGCRKVLEAVNLPLQARHGTPDSRLLAEIIHAGGWTSNEGGGISYNVPYAKNVTIEKSLLDWQYCDRLVGFYEEQGVHINREPFGPLTGTLVPPSMSNAVGITEALLAAEQGVKNITVGYGECGNMIQDIAALRCLEEQTNEYLKAYGYNDVFVTTVFHQWMGGFPQDESKAFGVIVTATTIAALAGATKVIVKTPHEAIGIPTKEANAAGIKATKMALNMLEGQRMPMSKELETEMAVIKAETKCILDKMFELGKGDLAIGTVKAFETGVMDIPFGPSKYNAGKMMPVRDNLGCVRYLEFGNVPFTEEIKNYNRERLQERAKFEGRDVSFQMVIDDIFAVGKGRLIGRPE” the “soluble on expression in E. coli” value was “soluble”. With “MELLCHEVDPVRRAVRDRNLLRDDRVLQNLLTIEERYLPQCSYFKCVQKDIQPYMRRMVATWMLEVCEEQKCEEEVFPLAMNYLDRFLAGVPTPKSHLQLLGAVCMFLASKLKETSPLTAEKLCIYTDNSIKPQELLEWELVVLGKLKWNLAAVTPHDFIEHILRKLPQQREKLSLIRKHAQTFIALCATDFKFAMYPPSMIATGSVGAAICGLQQDEEVSSLTCDALTELLAKITNTDVDCLKACQEQIEAVLLNSLQQYRQDQRDGSKSEDELDQASTPTDVRDIDL” the “soluble on expression in E. coli” value was “not soluble”. In the case of “MELLFLGTGAGIPAKARNVTSVALKLLEERRSVWLFDCGEATQHQMLHTTIKPRKIEKIFITHMAGDHVYGLPGLLGSRSFQGGEDELTVYGPKGIKAFIETSLAVTKTHLTYPLAIQEIEEGIVFEDDQFIVTAVSVIHGVEAFGYRVQEKDVPGSLKADVLKEMNIPPGPVYQKIKKGETVTLEDGRIINGNDFLEPPKKGRSVVFSGDTRVSDKLKELARDCDVMVHEATFAKEDRKLAYDYYHSTTEQAAVTAKEARAKQLILTHISARYQGDASLELQKEAVDVFPNSVAAYDFLEVNVPRGKLAAALEHHHHHH”, the “soluble on expression in E. coli” value is reported as “soluble”. In the case of “MELLSIQNLTKVYKVPAGFLRKKNFFALKEVSLSIKQGDFLAIVGESGSGKSTLGKIILRLEKPTKGKVSFKGKDIFSMGKEYTRKVSAVFQDPRSSLNPRMKVEEILEEPLIVHRVKGRKERVLKVLQRVRLSEELLEKRPLQISGGQAQRVAIARALILEPELIVADEPTASLDVSVQEEILELFKELNSKGISFFFVTHDIRVVEKVANMVGVIYAGILMELGKKEEVLKNPLHPYTKFLLENVPVRHPKDRKPLKYLQEEEVSIPEEGCPFYPRCPEAMEECKKFIRRSEVNGRLLACNLY”, the “soluble on expression in E. coli” value is reported as “soluble”. For “MELMIGRVVKSHGIRGEVAIEVTTEEPEIRFAQGEVLNGRQGGKEHSLTIASVRPHQNRLLVKFKEIADRTAADSLRGTRFFAAPLDDDVDDGFYDHELEGLAVIHGEEKIGEVSGVIHGPAQSLLEVTLESGKEVLIPFVHDIVPEVDLDAGTCVITPPEGLLELLEHHHHHH”, the “soluble on expression in E. coli” value was “soluble”. For “MELNDMAQFNEPISSQLLAIDENLTQLVTDIDILSSVNPLNYAQERERFISNKYSQEPNFQYQKAPLDTHQSKRRLYELPLEHIEDTQLQKLYEDVIQSYADKLDQVNTIGTQEFLYNSLRYYGEPSAKDIANAHFILHLPTEEESKPEHDSRSIAHFMQSFADKNGYECEIQILDGMLANALVSGSRVKINSAAHITTDELEALAHHEMGVHLLTTLNGRQQPLKVLSLGCPANTNTQEGLAILCEYLSGHFSIKRLRTLALRVLAVESMIKERDFRHTFMLLKEQYKASDVQAFTITSRVYRGGGLTKDYLYLRGFREVLNAYDKLGDDFSLLLCGKTELKYFDLIRSLVNKGIFTQPKFISPALSTPKQTNPIHRYIVSALKLEHHHHHH”, the “soluble on expression in E. coli” value was “soluble”. For “MELQEVLRMNGGEGDTSYAKNSAYNQLVLAKVKPVLEQCVRELLRANLPNINKCIKVADLGCASGPNTLLTVRDIVQSIDKVGQEKKNELERPTIQIFLNDLFPNDFNSVFKLLPSFYRKLEKENGRKIGSCLIGAMPGSFYSRLFPEESMHFLHSCYCLQWLSQVPSGLVTELGIGTNKGSIYSSKASRLPVQKAYLDQFTKDFTTFLRIHSEELFSHGRMLLTCICKGVELDARNAIDLLEMAINDLVVEGHLEEEKLDSFNLPVYIPSAEEVKCIVEEEGSFEILYLETFKVLYDAGFSIDDEHIKAEYVASSVRAVYEPILASHFGEAIIPDIFHRFAKHAAKVLPLGKGFYNNLIISLAKKPEKSDM”, the “soluble on expression in E. coli” value was “soluble”. For “MELVYMDGKKEPYTTSEIIAECAEVQHHTITRLIRENKADFEELGILGFKIHKLDTRGQPKKSYILNEQQATFLITYLKNTETVRQFKLNLVKAFFEMREELSEIRLQRALEKPKRKTLHDSIETWPNAPKHAHSTMNNLLLKAVTDMNAKQLREERGGYNGIDSLTSEELEQYQAFEDMAIAMIELKMSYQEIKTMMFRSKKIS”, the “soluble on expression in E. coli” value was “not soluble”.

— the DeepSol protein solubility set
